Assay results published in the supplement of paper PMC10567573.
± gives the standard deviation.

Assay: protein stability index of a GFP-peptide fusion (GPS, HEK-293T) (PSI 1-6); higher = more stable
[1] = treatment: DMSO, c terminus: a fixed tail appended
[2] = treatment: MLN4924 1 uM, 8 h, c terminus: a fixed tail appended
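Further: 24-mer peptide tiles fused after GFP, lentivirally expressed, FACS-sorted into six equal bins by GFP/DsRed ratio, decoded by Illumina sequencing, PSI is the read-weighted mean bin number.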

| Sequence | protein stability index [1] | protein stability index [2] | protein stability index (treatment: DMSO, c terminus: native) | protein stability index (treatment: MLN4924 1 uM, 8 h, c terminus: native) |
| --- | --- | --- | --- | --- |
| SKAKKLVCNINKGCGYGCQLHHVV [FUT8] | 2.71 ± 0.43 | 2.19 ± 0.4 |  |  |
| SKKEGKRQGPKEPPRKSGSFHSSG [PBXIP1] | 4.98 ± 0.32 | 5.2 ± 0.2 |  |  |
| SKSGYLRYSCESRIRSYLREVSSY [DFFB] | 2.1 ± 0.17 | 2.34 ± 0.37 |  |  |
| SLFSPVTEDSPLGTVVALLNVHDL [PCDHGA10] | 2.31 ± 0.2 | 2.32 ± 0.3 |  |  |
| SLKLASSELERLIVPNSNGVITTT [JUNB] | 3.24 ± 0.41 | 3.4 ± 0.54 |  |  |
| SLLCLLCSNSQEHGAHKHHPIEEA [TRIM43] | 2.67 ± 0.2 | 2.77 ± 0.21 |  |  |
| SLVRDTIARVHGTFGAAACSIGFA [POP5] | 2.31 ± 0.38 | 2.48 ± 0.22 |  |  |
| SMPVRLLGHSPVLRNITNSQAPDG [CDC25B] | 3.23 ± 0.22 | 3.4 ± 0.24 |  |  |
| SPEIMASVLNGKFANLIKEFVIID [CDC25A] | 2.47 ± 0.29 | 2.23 ± 0.19 |  |  |
| SPFAQFACDNGLNVRGGKPDDITV [PPTC7] | 4.22 ± 0.23 | 4.14 ± 0.16 |  |  |
| SPFSVHPKTGRISVPIDLQKVDQF [PRIM1] | 3.18 ± 0.59 | 3.42 ± 0.37 |  |  |
| SPLQTIGEEQTQNPYTELLVLKAH [WDR41] | 3.78 ± 0.078 | 3.75 ± 0.3 |  |  |
| SQIETLTSVFQKKLCTAHMCSTLE [MATN2] | 2.03 ± 0.2 | 2.81 ± 0.74 |  |  |
| SQSLWNRLSVLLNLLPAAGELQES [SMG5] | 2.75 ± 0.37 | 2.25 ± 0.18 |  |  |
| SQVSWEQDLKLFLQEPGVFSPTPP [FCHSD1] | 3.36 ± 0.4 | 3.61 ± 0.1 |  |  |
| SQWDVLSGDCDQRFRFPSPILKVQ [RBBP5] | 3.34 ± 0.14 | 3.38 ± 0.32 |  |  |
| SRFYEIHARARDQGQPAMEGHCVI [PCDHGC5] | 2.82 ± 0.27 | 2.54 ± 0.15 |  |  |
| SRNEFDRTIAETEAAYLKILESSQ [SSNA1] | 3.95 ± 0.22 | 4.04 ± 0.34 |  |  |
| SRRSMAHILKARKVLTEPEVRYYL [PLK2] | 2.48 ± 0.35 | 2.43 ± 0.15 |  |  |
| SRRSYDDQLRSGSPPKSPRTTVHD [DNAJC4] | 4.89 ± 0.31 | 4.98 ± 0.23 |  |  |
| SSAGGAKAGQPESRALALFDIQKI [ZNF8] | 3.99 ± 0.52 | 4.26 ± 0.26 |  |  |
| SSFNFFVFFFIFFVQDVLFVLQAI [SCAMP3] | 3.17 ± 0.26 | 3.18 ± 0.28 |  |  |
| SSGKLICSRTTGYQILTLEKDQEQ [GMCL1] | 3.94 ± 0.46 | 4.37 ± 0.28 |  |  |

| Sequence | protein stability index [1] | protein stability index [2] | protein stability index (treatment: DMSO, c terminus: native) | protein stability index (treatment: MLN4924 1 uM, 8 h, c terminus: native) |
| --- | --- | --- | --- | --- |
| SSIPRRDDFFRHESGEHFRSLLGY [RAD54B] | 2.65 ± 0.21 | 2.57 ± 0.33 |  |  |
| SSSKWQRRDYLLLVMEGTDDGRLL [APMAP] | 2.88 ± 0.43 | 2.32 ± 0.39 |  |  |
| SSTPDSTEGGNDDSDFRELHTARE [RTN2] | 5.41 ± 0.29 | 5.53 ± 0.21 |  |  |
| SSYYKFKLTREVLSLFVQKLGNLM [ZER1] | 2.83 ± 0.45 | 2.6 ± 0.36 |  |  |
| STLGGDIRESDPEQAPAPGEATAA [TBX6] | 5.65 ± 0.14 | 5.53 ± 0.38 |  |  |
| STQTKKLSASSPRMLHRSTQTTND [ZMYND11] | 4.71 ± 0.54 | 5.15 ± 0.17 |  |  |
| STSGQPYPTSDQEGDPGSKQPRKK [LCOR] | 5.5 ± 0.13 | 5.42 ± 0.19 |  |  |
| SVGSYLDTLADDVPGHQTPSDLDQ [LURAP1L] | 5.28 ± 0.23 | 5.34 ± 0.24 |  |  |
| SVSRFFADSGADPKGEPGSKQSPP [FBF1] | 5.09 ± 0.2 | 5.14 ± 0.14 |  |  |
| SVVDHPMPEERASKYENYFSASER [HESX1] | 4.73 ± 0.37 | 4.76 ± 0.17 |  |  |
| SVYAWGGGLGTPLRLPMLNTEVVQ [NEK8] | 2.63 ± 0.39 | 2.69 ± 0.32 |  |  |
| SVYVKLAGEREDLWAGSKGKEFGY [MIA2] | 2.52 ± 0.23 | 2.85 ± 0.15 |  |  |
| SWLDVQVSNTYVKQKTSAALSTMG [TPD52L3] | 2.79 ± 0.27 | 2.47 ± 0.22 |  |  |
| SWSALWNITDETPDNCEMFLNFNG [ZER1] | 2.61 ± 0.25 | 2.79 ± 0.23 |  |  |
| SYCPHCGEESSKAKEVTIAKADTT [EHMT1] | 4.27 ± 0.19 | 4.58 ± 0.19 |  |  |
| SYQEEAAMELKVEDPFYWVSPGVL [MOG] | 3.25 ± 0.5 | 3.28 ± 0.13 |  |  |
| SYRETRRKEGIVKLKPHEEPLRSE [PTPN9] | 4.66 ± 0.079 | 4.73 ± 0.3 |  |  |
| SYWEDLRKQARQLENELDLKLVSF [GOSR1] | 2.37 ± 0.24 | 2.57 ± 0.2 |  |  |
| TAPQQKPIGKISKNKKKKLKKKQK [SRPK2] | 4.92 ± 0.32 | 4.84 ± 0.67 |  |  |
| TAYWALAGSIGGLFFAVGIAQYAL [SLC22A15] | 3.06 ± 0.15 | 2.89 ± 0.18 |  |  |
| TCQRVNGIKVQNGGIVTDTPASNH [SLC19A2] | 4.08 ± 0.34 | 4.22 ± 0.17 |  |  |
| TDLVQFLLFKYQMKEPITKAEILE [MAGEA10] | 2.48 ± 0.43 | 2.2 ± 0.23 |  |  |
| TEGNPRWEQTHLTYRIENYTPDLP [MMP1] | 3.37 ± 0.099 | 3.51 ± 0.35 |  |  |

| Sequence | protein stability index [1] | protein stability index [2] | protein stability index (treatment: DMSO, c terminus: native) | protein stability index (treatment: MLN4924 1 uM, 8 h, c terminus: native) |
| --- | --- | --- | --- | --- |
| TGEKPYQCNICGKCFSCNSNLHRH [ZNF263] | 4.03 ± 0.2 | 4.52 ± 0.26 |  |  |
| TGFIFQKVGKLAATAVGGGFFLLQ [FUNDC2] | 2.36 ± 0.21 | 2.09 ± 0.51 |  |  |
| TGMWWRHLVAGGGAGAVSRTCTAP [SLC25A25] | 2.32 ± 0.25 | 2.48 ± 0.42 |  |  |
| TILDIFRFALRFIRPDPRSRVTDP [FAF2] | 2.75 ± 0.48 | 2.75 ± 0.099 |  |  |
| TILLDGRRVKLQLWDTSGQGRFCT [RAB40B] | 2.28 ± 0.22 | 2.14 ± 0.13 |  |  |
| TIQVHRRYWRSLRVMKVEDREGPS [HDAC6] | 2.31 ± 0.21 | 3.14 ± 0.34 |  |  |
| TISFLGCAIQMFSFLFLGCSHSFL [OR10K2] | 3.14 ± 0.41 | 3.6 ± 0.52 |  |  |
| TLALQGTQGQEKMMMMGPKEEEQS [ZNF232] | 5.29 ± 0.31 | 5.43 ± 0.14 |  |  |
| TLDQTTSEEAPGGTELIQTPLASS [HDAC6] | 5.52 ± 0.22 | 5.49 ± 0.26 |  |  |
| TLQELLARDTVQVELIPEKKGLFL [SNX8] | 2.47 ± 0.62 | 2.41 ± 0.43 |  |  |
| TMLAGHYPFQDSEPVLLFGKIRRG [TRIB3] | 2.56 ± 0.16 | 2.77 ± 0.25 |  |  |
| TNVVTGHRQSFGTNSDVLAQQFAL [DCAF4] | 3.35 ± 0.1 | 3.43 ± 0.33 |  |  |
| TPATPATLSASSSAGGSRTPAMSS [TFE3] | 4.99 ± 0.23 | 4.95 ± 0.3 |  |  |
| TQPPDESCSQNLLITQQIIPVLYC [P2RY14] | 2.28 ± 0.25 | 2.23 ± 0.22 |  |  |
| TRIHILPSMNPDGYEVAAAQGPNK [CPN1] | 4.13 ± 0.25 | 4.06 ± 0.27 |  |  |
| TRSKSDPVLHPSEERAAPVLSCEA [FAM189A2] | 5.49 ± 0.25 | 5.61 ± 0.15 |  |  |
| TSQKIAARAFAQRYLADLLPSVFG [RSPH3] | 2.12 ± 0.56 | 2.09 ± 0.18 |  |  |
| TSTGFDRHTSPVFSPANPESSMED [BCL2L13] | 5.39 ± 0.28 | 5.16 ± 0.072 |  |  |
| TSVDHDRAPVVGVRVNVLLSRYLI [DLC1] |  | 3.12 ± 1.8 |  |  |
| TTDDTTAMASASSSATGSFSYPE [MAGEA10] |  |  | 5.28 ± 0.14 | 5.4 ± 0.066 |
| TTFQDVYFVSESFEDAKEKMREFT [TPH1] | 3.61 ± 0.2 | 3.58 ± 0.29 |  |  |
| TTRHGEVGSALHRESFTSRQKTSG [C10orf62] | 4.75 ± 0.38 | 4.78 ± 0.083 |  |  |
| TVAASDPDTGDNARLTYSIVGNQV [PCDHGC5] | 4.36 ± 0.26 | 4.31 ± 0.18 |  |  |

| Sequence | protein stability index [1] | protein stability index [2] | protein stability index (treatment: DMSO, c terminus: native) | protein stability index (treatment: MLN4924 1 uM, 8 h, c terminus: native) |
| --- | --- | --- | --- | --- |
| TVDCEPSDLFRLQEYNIPGVIQSV [CDS2] | 3.01 ± 0.29 | 3.16 ± 0.25 |  |  |
| TVNTHYFSIDEELVYENFYADFGP [CDC14A] | 2.37 ± 0.28 | 2.67 ± 0.4 |  |  |
| TYPFLAMIMLKDRRMTVVGRLEGL [FAF2] | 2.66 ± 0.76 | 2.57 ± 0.46 |  |  |
| VAAGVLCELAQDKEAAEAIEAEGA [CTNNB1] | 5.31 ± 0.12 | 5.44 ± 0.12 |  |  |
| VAEQVGIDKGDIPDLTQAPSSLME [SNAP91] | 4.97 ± 0.38 | 5.03 ± 0.23 |  |  |
| VCEHLNLLEKDYFGLTYRDAENQK [EPB41L3] | 4.91 ± 0.31 | 4.69 ± 0.23 |  |  |
| VCEVQVHGGSLLGKKYNWSCDDLM [GFOD1] | 2.58 ± 0.16 | 2.35 ± 0.32 |  |  |
| VDGRLTYPTCGIGYPVSSAFAFQN [SASS6] | 2.37 ± 0.23 | 2.38 ± 0.37 |  |  |
| VDLSRILNEMRDQYEKMAEKNRKD [KRT17] | 3.52 ± 0.24 | 3.76 ± 0.36 |  |  |
| VEGEQQAWFGFAGTPGYLSPEVLR [CAMK2A] | 3.48 ± 0.21 | 3.49 ± 0.4 |  |  |
| VEGRHLYVLEFSDHPGIHEPLEPE [CPN1] | 3.04 ± 0.23 | 3.28 ± 0.33 |  |  |
| VERAAAAAAAAAGGDAGHAPFPPP [C6orf223] | 5.08 ± 0.65 | 5.22 ± 0.4 |  |  |
| VFKCSVSRETECSRVGKQSFIITL [CARM1] | 2.65 ± 1.1 | 2.61 ± 0.67 |  |  |
| VGGKIVGSLCAIAGVLTIALPVPV [KCNA4] | 3.78 ± 0.78 | 2.76 ± 0.46 |  |  |
| VGRGEVVTVRVPTHEEGSYLFWEF [ACBD3] | 2.64 ± 0.44 | 2.34 ± 0.26 |  |  |
| VGRLYAVYDQAVSIFYDLPQGSGF [SMAD6] | 2.54 ± 0.47 | 2.39 ± 0.65 |  |  |
| VGSVALTALVTVSSEEFEDKWFRK [C8orf76] | 2.26 ± 0.19 | 2.35 ± 0.21 |  |  |
| VIAKWDYTAQQDQELDIKKNERLW [NCK2] | 3.28 ± 0.093 | 3.4 ± 0.32 |  |  |
| VIASGSSVGHNNLIPLANTGIVNH [CARM1] | 3.11 ± 0.099 | 3.19 ± 0.23 |  |  |
| VIEEAKTAFLLNIQLFEELQELLT [HMOX1] | 2.08 ± 0.32 | 2.38 ± 0.2 |  |  |
